# Laboratory results reported in article PMC2841437.
# Assays:
# [1] = target: activated GST fusion protein of full-length human Akt1 (T308D/S473D) (human) (UniProt P31749); assay: other fluorescence titration
# [2] = target: activated GST fusion protein of full-length human Akt1 (T308D/S473D) (human) (UniProt P31749); assay: pull-down
# Sequence of UniProt P31749 (P31749 whole entry T308D/S473D, the tested form may be a part): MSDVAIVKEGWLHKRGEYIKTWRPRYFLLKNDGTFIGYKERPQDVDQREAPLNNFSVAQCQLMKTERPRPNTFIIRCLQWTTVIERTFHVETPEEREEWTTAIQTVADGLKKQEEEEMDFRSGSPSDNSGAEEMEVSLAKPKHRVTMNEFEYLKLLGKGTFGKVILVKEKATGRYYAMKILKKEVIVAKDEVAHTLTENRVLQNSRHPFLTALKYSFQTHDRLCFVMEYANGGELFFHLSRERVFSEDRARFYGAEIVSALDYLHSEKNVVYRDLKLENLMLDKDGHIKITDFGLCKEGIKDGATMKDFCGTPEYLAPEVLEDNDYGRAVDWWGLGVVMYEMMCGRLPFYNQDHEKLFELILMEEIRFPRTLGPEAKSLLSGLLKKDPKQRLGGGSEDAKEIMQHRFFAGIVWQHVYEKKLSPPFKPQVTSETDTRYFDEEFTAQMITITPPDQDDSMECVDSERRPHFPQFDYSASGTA
Kd [1] [nM],percentage of recovery [2] [%],Substance
1.2,–,T7-tagged CBP CH3 fragment with T1872A (from UniProt P45481 1756-1878) (domain or fragment)
4.07,–,T7-tagged CBP CH3 fragment with T1872D (from UniProt P45481 1756-1878) (domain or fragment)
–,31.7,GSK-3α/β fusion protein
